Experimental data published in doi:10.1101/2024.07.19.604271.
Where two headings read alike, the source gives them in different places.

Assays:
[1] = target: stabilized microtubules polymerized from pig brain tubulin (GMPCPP-stabilized or Taxotere-stabilized) (pig); assay: TIRF microscopy of fluorescent kinesin on surface-attached microtubules
[2] = target: stabilized microtubules polymerized from pig brain tubulin (GMPCPP-stabilized or Taxotere-stabilized) (pig); assay: as above; remark: listed apart in the source
[3] = target: full-length Kip2-Δ70 (S. cerevisiae) (UniProt P28743); assay: TIRF microscopy, tubulin transport assay

## bKip2-P1 (motor domain P1 mutant, K294R K296R) (from UniProt P28743 1-560) (domain or fragment)
[1]
  fold lower affinity than bKip2-WT: 2.8 fold
[2]
  fold lower affinity than bKip2-WT: 3.5 fold

## bKip2-Δ70 (from UniProt P28743 71-560) (domain or fragment)
[2]
  fold lower affinity than bKip2-WT: 1.3 fold

## free tubulin dimers, ATTO-488-labelled, from pig brain (complex)
[3]
  fold reduction of tubulin transport events against wild type Kip2: 3 to 8 fold
